US20240392004A1 (IMMUNOWAKE, published 2024)
Positions count from the first letter of the chain named. Names and notes keep the numbering of the source.

T1: human IL-2 receptor (IL-2Rα, IL-2Rβ, IL-2Rγ) (human, UniProt P01589 22-272; P14784 27-551; P31785 23-369)
T1 sequence (looked up) 1: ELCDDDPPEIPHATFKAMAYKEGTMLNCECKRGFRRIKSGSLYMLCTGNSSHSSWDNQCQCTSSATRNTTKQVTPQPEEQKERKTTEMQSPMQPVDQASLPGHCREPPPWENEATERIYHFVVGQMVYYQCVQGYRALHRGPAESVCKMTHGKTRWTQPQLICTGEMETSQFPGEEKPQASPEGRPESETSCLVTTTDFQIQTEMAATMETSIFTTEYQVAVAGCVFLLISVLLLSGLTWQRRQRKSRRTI
T1 sequence (looked up) 2: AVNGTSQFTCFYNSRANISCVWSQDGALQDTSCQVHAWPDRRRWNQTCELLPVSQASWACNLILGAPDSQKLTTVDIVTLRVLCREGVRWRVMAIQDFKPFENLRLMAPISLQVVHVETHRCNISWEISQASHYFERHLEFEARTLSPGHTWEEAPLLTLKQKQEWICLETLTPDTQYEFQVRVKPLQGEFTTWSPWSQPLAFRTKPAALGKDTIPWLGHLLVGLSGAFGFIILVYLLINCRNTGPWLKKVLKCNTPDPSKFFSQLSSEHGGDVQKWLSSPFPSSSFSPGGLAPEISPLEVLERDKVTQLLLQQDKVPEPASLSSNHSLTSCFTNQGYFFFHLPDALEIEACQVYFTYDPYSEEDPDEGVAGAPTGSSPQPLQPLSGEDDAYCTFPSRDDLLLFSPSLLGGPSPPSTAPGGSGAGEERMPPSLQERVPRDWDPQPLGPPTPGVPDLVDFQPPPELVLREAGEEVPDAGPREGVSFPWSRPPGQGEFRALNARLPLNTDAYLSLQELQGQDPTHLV
T1 sequence (looked up) 3: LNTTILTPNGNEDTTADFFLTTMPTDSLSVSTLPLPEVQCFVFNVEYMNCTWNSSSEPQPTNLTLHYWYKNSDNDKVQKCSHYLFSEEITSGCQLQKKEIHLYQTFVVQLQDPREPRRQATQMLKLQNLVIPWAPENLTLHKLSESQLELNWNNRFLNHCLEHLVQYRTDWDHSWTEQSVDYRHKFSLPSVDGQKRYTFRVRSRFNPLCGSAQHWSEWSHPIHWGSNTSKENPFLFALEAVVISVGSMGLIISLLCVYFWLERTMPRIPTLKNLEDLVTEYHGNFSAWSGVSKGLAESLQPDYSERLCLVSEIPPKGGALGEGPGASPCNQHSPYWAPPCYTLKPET

B1: IL-2(R38D/K43E/E61R/Q126T)/IL-12(E59A/F60A)/PD-L1(mut2)-Fc (Fc fusion)
chain 1: FTVTVPKDLYVVEYGSNMTIECKFPVEKQLDLAALQVYWMMEDKNIIQFVHGEEDLKVQHSSYRQRARLLKDQLSLGNAALQITDVKLQDAGVYTCLIAYKGADYKRITVKVNAPYNKINQRILVVDPVTSEHELTCQAEGYPKAEVIWTSSDHQVLSGKTTTTNSKREEKLFNVTSTLRINTTTNEIFYCTFRRLDPEENHTAELVIPELPLAHPPNERGGGGSGGGIWELKKDVYVVELDWYPDAPGEMVVLTCDTPEEDGITWTLDQSSEVLGSGKTLTIQVKAAGDAGQYTCHKGGEVLSHSLLLLHKKEDGIWSTDILKDQKEPKNKTFLRCEAKNYSGRFTCWWLTTISTDLTFSVKSSRGSSDPQGVTCGAATLSAERVRGDNKEYEYSVECQEDSACPAAEESLPIEVMVDAVHKLKYENYTSSFFIRDIIKPDPPKNLQLKPLKNSRQVEVSWEYPDTWSTPHSYFSLTFCVQVQGKSKREKKDRVFTDKTSATVICRKNASISVRAQDRYYSSSWSEWASVPCSGGGGSGGGSGGGGSRNLPVATPDPGMFPCLHHSQNLLRAVSNMLQKARQTLEFYPCTSEEIDHEDITKDKTSTVEACLPLELTKNESCLNSRETSFITNGSCLASRKTSFMMALCLSSIYEDLKMYQVEFKTMNAKLLMDPKRQIFLDQNMLAVIDELMQALNFNSETVPQKSSLEEPDFYKTKIKLCILLHAFRIRAVTIDRVMSYLNASGGGGSGGGDKTHTCPPCPAPEDEGGPSVFLFPPKPKDTLMISRTPEVTCVVVDVSHEDPEVKFNWYVDGVEVHNAKTKPREEQYNSTYRVVSVLTVLHQDWLNGKEYKCKVSNKALPAPIEKTISKAKGQPREPQVYVYPPSREEMTKNQVSLTCLVKGFYPSDIAVEWESNGQPENNYKTTPPVLDEDGSFALVSKLTVDKSRWQQGNVFSCSVMHEALHNHYTQKSLSLSPGK
chain 2: FTVTVPKDLYVVEYGSNMTIECKFPVEKQLDLAALQVYWMMEDKNIIQFVHGEEDLKVQHSSYRQRARLLKDQLSLGNAALQITDVKLQDAGVYTCLIAYKGADYKRITVKVNAPYNKINQRILVVDPVTSEHELTCQAEGYPKAEVIWTSSDHQVLSGKTTTTNSKREEKLFNVTSTLRINTTTNEIFYCTFRRLDPEENHTAELVIPELPLAHPPNERGGGSGAPTSSSTKKTQLQLEHLLLDLQMILNGINNYKNPKLTDMLTFEFYMPKKATELKHLQCLERELKPLEEVLNLAQSKNFHLRPRDLISNINVIVLELKGSETTFMCEYADETATIVEFLNRWITFCTSIISTLTGGGGSGGGDKTHTCPPCPAPEKKGGPSVFLFPPKPKDTLMISRTPEVTCVVVDVSHEDPEVKFNWYVDGVEVHNAKTKPREEQYNSTYRVVSVLTVLHQDWLNGKEYKCKVSNKALPAPIEKTISKAKGQPREPQVYVLPPSREEMTKNQVSLLCLVKGFYPSDIAVEWESNGQPENRYMTWPPVLDSDGSFFLYSKLTVDKSRWQQGNVFSCSVMHEALHNHYTQKSLSLSPGK
B2: IL-2(L18R/Q22E/R38D/K43E/E61R)/PD-L1(mut2)-Fc/IL-12(E59A/F60A) (Fc fusion)
chain 1: FTVTVPKDLYVVEYGSNMTIECKFPVEKQLDLAALQVYWMMEDKNIIQFVHGEEDLKVQHSSYRQRARLLKDQLSLGNAALQITDVKLQDAGVYTCLIAYKGADYKRITVKVNAPYNKINQRILVVDPVTSEHELTCQAEGYPKAEVIWTSSDHQVLSGKTTTTNSKREEKLFNVTSTLRINTTTNEIFYCTFRRLDPEENHTAELVIPELPLAHPPNERGGGGSGGGDKTHTCPPCPAPEDEGGPSVFLFPPKPKDTLMISRTPEVTCVVVDVSHEDPEVKFNWYVDGVEVHNAKTKPREEQYNSTYRVVSVLTVLHQDWLNGKEYKCKVSNKALPAPIEKTISKAKGQPREPQVYVYPPSREEMTKNQVSLTCLVKGFYPSDIAVEWESNGQPENNYKTTPPVLDEDGSFALVSKLTVDKSRWQQGNVFSCSVMHEALHNHYTQKSLSLSPGKGGGGSGGGIWELKKDVYVVELDWYPDAPGEMVVLTCDTPEEDGITWTLDQSSEVLGSGKTLTIQVKAAGDAGQYTCHKGGEVLSHSLLLLHKKEDGIWSTDILKDQKEPKNKTFLRCEAKNYSGRFTCWWLTTISTDLTFSVKSSRGSSDPQGVTCGAATLSAERVRGDNKEYEYSVECQEDSACPAAEESLPIEVMVDAVHKLKYENYTSSFFIRDIIKPDPPKNLQLKPLKNSRQVEVSWEYPDTWSTPHSYFSLTFCVQVQGKSKREKKDRVFTDKTSATVICRKNASISVRAQDRYYSSSWSEWASVPCSGGGGSGGGSGGGGSRNLPVATPDPGMFPCLHHSQNLLRAVSNMLQKARQTLEFYPCTSEEIDHEDITKDKTSTVEACLPLELTKNESCLNSRETSFITNGSCLASRKTSFMMALCLSSIYEDLKMYQVEFKTMNAKLLMDPKRQIFLDQNMLAVIDELMQALNFNSETVPQKSSLEEPDFYKTKIKLCILLHAFRIRAVTIDRVMSYLNAS
chain 2: B1 chain 2 with L243R, Q247E, T351Q
B3: IL-2(R38D/K43E/E61R/Q126T)/PD-L1(mut2)-Fc/IL-12(E59A/F60A) (Fc fusion)
chain 1: B2 chain 1
chain 2: B1 chain 2
B4: PD-L1(mut2)-Fc/IL-12(E59A/F60A) (IL-12 at C' of Fc) (Fc fusion)
chain 1: B2 chain 1
chain 2: FTVTVPKDLYVVEYGSNMTIECKFPVEKQLDLAALQVYWMMEDKNIIQFVHGEEDLKVQHSSYRQRARLLKDQLSLGNAALQITDVKLQDAGVYTCLIAYKGADYKRITVKVNAPYNKINQRILVVDPVTSEHELTCQAEGYPKAEVIWTSSDHQVLSGKTTTTNSKREEKLFNVTSTLRINTTTNEIFYCTFRRLDPEENHTAELVIPELPLAHPPNERGGGGSGGGDKTHTCPPCPAPEKKGGPSVFLFPPKPKDTLMISRTPEVTCVVVDVSHEDPEVKFNWYVDGVEVHNAKTKPREEQYNSTYRVVSVLTVLHQDWLNGKEYKCKVSNKALPAPIEKTISKAKGQPREPQVYVLPPSREEMTKNQVSLLCLVKGFYPSDIAVEWESNGQPENRYMTWPPVLDSDGSFFLYSKLTVDKSRWQQGNVFSCSVMHEALHNHYTQKSLSLSPGK

The binders below were run against human IL-12 receptor complex (IL-12Rβ1 and IL-12Rβ2) (human, UniProt P42701 24-662; Q99665 24-862) (assay: cell-based or functional assay).
human IL-12 receptor complex (IL-12Rβ1 and IL-12Rβ2), sequence (Q99665 24-862, chain 2 of 2, other chains not shown): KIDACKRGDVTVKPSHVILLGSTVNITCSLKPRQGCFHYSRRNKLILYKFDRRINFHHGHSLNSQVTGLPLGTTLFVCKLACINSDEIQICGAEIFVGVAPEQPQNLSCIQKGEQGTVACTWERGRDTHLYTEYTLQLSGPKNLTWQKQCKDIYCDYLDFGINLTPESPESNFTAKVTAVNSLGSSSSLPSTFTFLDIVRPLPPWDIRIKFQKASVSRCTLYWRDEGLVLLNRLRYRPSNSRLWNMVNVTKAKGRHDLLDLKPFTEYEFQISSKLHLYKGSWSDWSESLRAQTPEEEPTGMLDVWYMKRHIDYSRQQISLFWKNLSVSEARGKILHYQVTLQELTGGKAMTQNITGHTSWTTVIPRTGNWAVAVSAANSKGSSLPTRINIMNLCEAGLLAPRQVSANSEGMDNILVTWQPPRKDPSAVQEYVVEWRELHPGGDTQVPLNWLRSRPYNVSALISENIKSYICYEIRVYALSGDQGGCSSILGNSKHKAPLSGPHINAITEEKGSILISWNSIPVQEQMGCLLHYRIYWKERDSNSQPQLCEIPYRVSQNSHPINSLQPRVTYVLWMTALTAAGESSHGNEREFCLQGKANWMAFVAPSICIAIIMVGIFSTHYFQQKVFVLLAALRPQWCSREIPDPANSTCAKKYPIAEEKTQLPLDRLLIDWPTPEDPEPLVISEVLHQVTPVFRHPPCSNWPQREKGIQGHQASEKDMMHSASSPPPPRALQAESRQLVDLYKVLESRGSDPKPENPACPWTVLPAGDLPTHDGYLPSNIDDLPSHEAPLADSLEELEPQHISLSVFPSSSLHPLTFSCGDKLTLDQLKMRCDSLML

Row | IL-12 signal transduction, HEK-IL-12 [%] | Binder
1 | < 0.2 | B1
2 | 2 | B2
3 | 1 | B3
4 | 1 | B4

These binders were tested against human PD-1 on cells (HEK-PD-1 reporter cells; activated PBMC) (human, UniProt Q15116 25-288) (assay: cell-based or functional assay).
human PD-1 on cells (HEK-PD-1 reporter cells; activated PBMC), sequence (Q15116 25-288): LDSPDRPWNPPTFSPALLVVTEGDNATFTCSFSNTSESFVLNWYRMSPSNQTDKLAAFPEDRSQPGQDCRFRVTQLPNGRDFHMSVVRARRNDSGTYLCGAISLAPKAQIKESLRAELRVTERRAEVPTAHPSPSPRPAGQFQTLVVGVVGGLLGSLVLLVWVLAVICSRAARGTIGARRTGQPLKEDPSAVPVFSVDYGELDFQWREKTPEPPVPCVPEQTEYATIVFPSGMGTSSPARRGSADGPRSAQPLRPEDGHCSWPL

Row | IL-2 signal transduction, HEK-IL-2-PD-1 [%] | IL-12 signal transduction, HEK-IL-12-PD-1 [%] | Binder
5 | 20 | 25 | B1
6 | 32 | 27 | B2
7 | 31 | 30 | B3
8 | < 0.1 | 25 | B4

Each binder was assayed against T1, human IL-2 receptor (IL-2Rα, IL-2Rβ, …) (assay: cell-based or functional assay).

Row | IL-2 signal transduction, HEK-IL-2 [%] | Binder
9 | 2 | B1
10 | 3 | B2
11 | 3 | B3
12 | < 0.1 | B4
